This is an account of results in patent publication US20210079398A1.

Assay [1] has as its target Spot-Tag peptide-oligonucleotide conjugate (Spot-Tag.O1). As to the kind of experiment: BCS binding assay on a sequencing chip (Cycle 1), NGS count of the nanobody barcode on foundation Spot-Tag.O1_BCS4_Fd19.
Assay [2] shares this target. Nature of the assay: BCS binding assay on a sequencing chip (Cycle 1), NGS count of the nanobody barcode on foundation Spot-Tag.O1_BCS4_Fd27.
Assay [3] has the same target. As to the kind of experiment: BCS binding assay on a sequencing chip (Cycle 1), NGS count of the nanobody barcode on foundation Spot-Tag.O1_BCS4_Fd31.
The target in assay [4] is Bradykinin peptide-oligonucleotide conjugate (Brady.O1). As to the kind of experiment: BCS binding assay on a sequencing chip (Cycle 1), NGS count of the nanobody barcode on foundation Brady.O1_BCS4_Fd13 (non-specific peptide control).
The target of assay [5] is Spot-Tag peptide-oligonucleotide conjugate (Spot-Tag.O1). Nature of the assay: BCS binding assay on a sequencing chip (Cycle 1), NGS count of the nanobody barcode on foundation Spot-Tag.O1_BCS4_Fd28.
The target in assay [6] is Bradykinin peptide-oligonucleotide conjugate (Brady.O1). As to the kind of experiment: BCS binding assay on a sequencing chip (Cycle 1), NGS count of the nanobody barcode on foundation Brady.O1_BCS4_Fd12 (non-specific peptide control).
Assay [7] deals with Spot-Tag peptide-oligonucleotide conjugate (Spot-Tag.O1). As to the kind of experiment: BCS binding assay on a sequencing chip (Cycle 1), NGS count of the nanobody barcode on foundation Spot-Tag.O1_BCS4_Fd29.
The target of assay [8] is Bradykinin peptide-oligonucleotide conjugate (Brady.O1). As to the kind of experiment: BCS binding assay on a sequencing chip (Cycle 1), NGS count of the nanobody barcode on foundation Brady.O1_BCS4_Fd14 (non-specific peptide control).
For assay [9], the target named is Spot-Tag peptide-oligonucleotide conjugate (Spot-Tag.O1). As to the kind of experiment: BCS binding assay on a sequencing chip (Cycle 1), NGS count of the nanobody barcode on foundation Spot-Tag.O1_BCS4_Fd20.

For the substance Spot-tag nanobody-oligo conjugate (VHH), the sequencing counts of binder barcode ligated to target foundation in [1] was found to be 6900 counts; in assay [2], 3380 counts; in assay [3] it was 6160 counts; in assay [4], 1620 counts; in assay [5], 4880 counts; in assay [6], 40 counts. Also, the sequencing counts of binder barcode ligated to target foundation in assay [7] worked out at 10600 counts; in [8], 587 counts; in assay [9], 9650 counts.
